Results: the supplement of paper PMC10724198
± gives the standard deviation of the averaged measurements.

Tested on: Saccharomyces cerevisiae
Assay: protein stability index of tFT-peptide fusion (C-terminal peptide) (PSI (0-1 scale)); higher = more stable (slower turnover)
Conditions: temperature: 30 C
Procedure: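 MPS profiling in S. cerevisiae of the yeast C-terminome library: the last 12 aa of each annotated ORF are fused to the C-terminus of a sfGFP-mCherry timer, after a GGGS linker. Cells are FACS-sorted into 8 mCherry/sfGFP bins and deep-sequenced. PSI runs from 0 (unstable) to 1 (stable); wild type and das1Δ backgrounds, two technical replicates each.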

[1] = genetic background: das1 deletion

Sequence	protein stability index [1]	protein stability index (genetic background: wild type)
GMISKSLKIPKP [CHO1 C-terminal 12 aa]	0.661 ± 0.0085	0.698 ± 0.0082
LSPSYSCRYHGR [YPL152W-A C-terminal 12 aa]	0.7126 ± 0.0044	0.6832 ± 0.004
LADEEDAIHDEL [PDI1 C-terminal 12 aa]	0.68604 ± 0.00055	0.678 ± 0.023
ERDGYYYLKRSS [VHT1 C-terminal 12 aa]	0.715 ± 0.019	0.694 ± 0.02
VTGKEKFEKLRD [SPG3 C-terminal 12 aa]	0.724 ± 0.0027	0.685 ± 0.024
LGQAVVKAINFA [YBR277C C-terminal 12 aa]	0.6797 ± 0.0059	0.702 ± 0.041
DKEQQQQQQQQP [ZDS1 C-terminal 12 aa]	0.702 ± 0.0076	0.708 ± 0.032
SGIKEFFDNYKS [ARO9 C-terminal 12 aa]	0.712 ± 0.027	0.716 ± 0.025
RPMQHMYINNFT [YAL026C-A C-terminal 12 aa]	0.71914 ± 0.00059	0.672 ± 0.011
CLRKSPPFVHNT [YMR084W C-terminal 12 aa]	0.6939 ± 0.0044	0.703 ± 0.022
GQALLDQFAKFK [LSC1 C-terminal 12 aa]	0.721 ± 0.058	0.687 ± 0.021
ANKKARHFNNSA [VAM7 C-terminal 12 aa]	0.687 ± 0.017	0.698 ± 0.019
SLDITEDWEVIF [ROT2 C-terminal 12 aa]	0.725 ± 0.023	0.7587 ± 0.0031
KRPPLPNMSFSW [YLL019W-A C-terminal 12 aa]	0.776 ± 0.025	0.728 ± 0.028
TSTLAVIPYPAF [YLR466C-B C-terminal 12 aa]	0.7177 ± 0.0022	0.755 ± 0.045
ILTAEKMRGNGN [RRP4 C-terminal 12 aa]	0.686 ± 0.033	0.677 ± 0.027
EEFSSGDYSMDY [RIE1 C-terminal 12 aa]	0.7024 ± 0.006	0.66 ± 0.025
QSADAAGVVKKH [GCN20 C-terminal 12 aa]	0.683 ± 0.011	0.726 ± 0.028
NQKKKFKMEFRG [SAP30 C-terminal 12 aa]	0.6956 ± 0.0027	0.665 ± 0.0075
KITVSNLTNQQI [YCL001W-B C-terminal 12 aa]	0.6746 ± 0.0032	0.684 ± 0.04
THQKKIAKKKHQ [YPR015C C-terminal 12 aa]	0.741 ± 0.053	0.695 ± 0.014

Sequence	protein stability index [1]	protein stability index (genetic background: wild type)
HKTNLTRGSFYS [YIR020W-A C-terminal 12 aa]	0.70525 ± 6.6e-05	0.708 ± 0.041
DEERPSKKPKVE [POB3 C-terminal 12 aa]	0.7314 ± 0.0054	0.745 ± 0.02
YLADELSKALLA [RFA1 C-terminal 12 aa]	0.673 ± 0.0099	0.6545 ± 0.0044
LLEDEDRTYNYT [KCH1 C-terminal 12 aa]	0.6892 ± 0.0059	0.718 ± 0.069
PQMARKQRGHIG [SDS23 C-terminal 12 aa]	0.678 ± 0.024	0.681 ± 0.0087
ANHNNQRAGYFL [SIT4 C-terminal 12 aa]	0.699 ± 0.02	0.652 ± 0.015
TVRALNPFMKRV [SSD1 C-terminal 12 aa]	0.689 ± 0.046	0.656 ± 0.039
LGKGGKGKRKMK [LSO2 C-terminal 12 aa]	0.705 ± 0.027	0.64 ± 0.018
AKAQSQALVTGM [PCL6 C-terminal 12 aa]	0.6806 ± 0.0011	0.685 ± 0.035
YIHTYIYLLFVY [YIL100C-A C-terminal 12 aa]	0.222 ± 0.01	0.198 ± 0.036
EQHNVLDTKKNE [SPC2 C-terminal 12 aa]	0.687 ± 0.037	0.649 ± 0.029
GIVPGDCLQEYD [FUS1 C-terminal 12 aa]	0.702 ± 0.0059	0.685 ± 0.016
KQVNEDADSDLL [KEL1 C-terminal 12 aa]	0.6784 ± 0.0013	0.682 ± 0.013
DNGRIIITGIPN [ECM5 C-terminal 12 aa]	0.681 ± 0.024	0.675 ± 0.033
EKWKINKKETVE [MOD5 C-terminal 12 aa]	0.697 ± 0.03	0.7095 ± 0.0026
TAESDDDEEDDE [TIF5 C-terminal 12 aa]	0.688 ± 0.026	0.709 ± 0.052
RLPRSFLFLNKK [YOR343C C-terminal 12 aa]	0.723 ± 0.01	0.665 ± 0.028
CLFRYKQLPRRV [MCH2 C-terminal 12 aa]	0.69 ± 0.073	0.687 ± 0.029
AEETAVFTLPNV [GGA2 C-terminal 12 aa]	0.7266 ± 0.0034	0.694 ± 0.0082
NEDSMEIDDDLD [HSP104 C-terminal 12 aa]	0.6988 ± 0.0014	0.665 ± 0.021
TYRLGEWSKISV [POP1 C-terminal 12 aa]	0.694 ± 0.011	0.6913 ± 0.0047

Sequence	protein stability index [1]	protein stability index (genetic background: wild type)
KNVMRRGQFMKR [GRC3 C-terminal 12 aa]	0.681 ± 0.013	0.753 ± 0.048
VLDVGSVLDVTI [PSR2 C-terminal 12 aa]	0.718 ± 0.035	0.6934 ± 0.00093
YDLVEKCVWRGI [ORC3 C-terminal 12 aa]	0.707 ± 0.041	0.716 ± 0.022
SRVDEVVTKYSH [AAH1 C-terminal 12 aa]	0.7 ± 0.029	0.667 ± 0.028
CVWESMSNWLQK [YEL034C-A C-terminal 12 aa]	0.7238 ± 0.00042	0.724 ± 0.015
LINGTRIMNSIS [VPS33 C-terminal 12 aa]	0.684 ± 0.01	0.532 ± 0.0095
VREYNKYCEAIL [VPS13 C-terminal 12 aa]	0.687 ± 0.01	0.667 ± 0.033
EEMIRSSSLYDE [ACA1 C-terminal 12 aa]	0.7312 ± 0.0059	0.711 ± 0.029
MQRVSTQHEKET [PMA1 C-terminal 12 aa]	0.715 ± 0.0091	0.698 ± 0.022
TTLCILFLFFTW [GOS1 C-terminal 12 aa]	0.386 ± 0.0071	0.401 ± 0.014
NPGFIVEKRTID [MRPL33 C-terminal 12 aa]	0.697 ± 0.035	0.737 ± 0.0098
ALKLRALEKLSF [NCS6 C-terminal 12 aa]	0.711 ± 0.014	0.697 ± 0.037
AERFDNTEVLHL [STE13 C-terminal 12 aa]	0.7011 ± 0.0037	0.689 ± 0.035
YIVECIKNVLTK [APL3 C-terminal 12 aa]	0.686 ± 0.038	0.698 ± 0.018
NPPISVSVTGDE [SRT1 C-terminal 12 aa]	0.687 ± 0.0084	0.6978 ± 0.0036
QTSAKVSIRLLY [SER33 C-terminal 12 aa]	0.659 ± 0.034	0.595 ± 0.0064
VEFKYPEEIFHG [TPP1 C-terminal 12 aa]	0.712 ± 0.012	0.6782 ± 0.0027
LFFGGEKVHSLK [NGL3 C-terminal 12 aa]	0.7279 ± 0.0017	0.715 ± 0.026
KTTPRNVELFGM [DXO1 C-terminal 12 aa]	0.678 ± 0.021	0.693 ± 0.018
